For the test, the target named is WT1 peptide … presented by HLA-A0201 (human;). Kind of test: 125I-labeled antibody saturation cell binding; JMN cells.

B1: ESK1 wildtype IgG1 (antibody, V domains shown)
VH: QMQLVQSGAEVKEPGESLRISCKGSGYSFTNFWISWVRQMPGKGLEWMGRVDPGYSYSTYSPSFQGHVTISADKSTSTAYLQWNSLKASDTAMYYCARVQYSGYYDWFDPWGQGTLVTVSS
VL: not shown
Broadly, the Kd is a measure of binding affinity in units of concentration. The low end stands for tighter binding, the high end for weaker binding. In turn, B1 showed a Kd of 0.2 nM.
